This note sets out measurements from paper PMC3777995, “The Inhibitory Helix Controls the Intramolecular Conformational Switching of the C-Terminus of STIM1” (PLoS ONE, 2013).

Series [1] deals with the molecule itself. Put plainly: AUC; sedimentation velocity, 42,000 rpm, 4°C, interference detection; approximately 6 mg/ml CC1-IH, 1.57 mg/ml CC1, 1.2 mg/ml MBP-IH; 20 mM Tris-HCl pH 8.0, 200 mM NaCl, 1 mM EDTA; self-associating multimerization model.
Series [2] concerns the molecule itself. The series is described as follows: SEC; HiLoad 26/60 Superdex 200 and Superdex 200 columns calibrated with protein standards; 20 mM Tris-HCl pH 8.0, 200 mM NaCl, 1 mM EDTA. A general note: In gel filtration, larger molecules generally elute earlier.

Values joined by “and” are separate entries in the source; they are usually repeats but may differ in a detail not shown here. Equal entries are not always repeated.

B1: wild-type CC1-IH (human STIM1 amino acids 237-340) (domain or fragment, UniProt Q13586 237-340, looked up)
chain: SKEHMKKMMKDLEGLHRAEQSLHDLQERLHKAQEEHRTVEVEKVHLEKKLRDEINLAKQEAQRLKELREGTENERSRQKYAEEELEQVREALRKAEKELESHSS
notes: Predominantly a dimer and partially a tetramer by AUC; His tag removed with PreScission protease; source: E. coli BL21(DE3) Codon-Plus, purified (Ni-NTA, Q-Sepharose, Superdex-200)
In the case of B1, the “stoichiometry N” value in series [1] was 2 and 4.

B2: IH-only fragment of STIM1 (peptide, UniProt Q13586 310-340, looked up)
chain: ERSRQKYAEEELEQVREALRKAEKELESHSS
notes: limits 310-340 are printed for the MBP-tagged IH from which this fragment was cut; Theoretical mass 3.7 kDa; also called IH-only protein; source: E. coli, obtained by PreScission digestion of purified MBP-IH, purified (Superdex 200)
Regarding B2, the “stoichiometry N” value in series [2] was found to be 2.

B3: MBP-IH fusion protein (MBP-tagged IH, STIM1 residues 310-340) (domain or fragment, human, UniProt Q13586 310-340, looked up)
chain: B2 chain
notes: made by loop-out of the CC1 fragment from MBP-CC1-IH; Theoretical mass 49 kDa; a PreScission-cleavable segment stands between MBP and IH; also called IH-MBP fusion protein; source: E. coli, purified (MBPTrap, Q-Sepharose, Superdex-200)
With B3, the “stoichiometry N” value in series [2] was 2.

As a reminder, the stoichiometry N is the number of molecules, sites or subunits per partner or assembly.
